# Assay results reported in patent US20150344570A1 (published 2015).
# T1: FcγRIIb extracellular domain with C-terminal His tag (human, UniProt P31994 43-217)
# T1 construct: extracellular domain; expressed in FreeStyle293 cells; analyte in Biacore; also called FcgRIIb; 2b
# T1 sequence (looked up): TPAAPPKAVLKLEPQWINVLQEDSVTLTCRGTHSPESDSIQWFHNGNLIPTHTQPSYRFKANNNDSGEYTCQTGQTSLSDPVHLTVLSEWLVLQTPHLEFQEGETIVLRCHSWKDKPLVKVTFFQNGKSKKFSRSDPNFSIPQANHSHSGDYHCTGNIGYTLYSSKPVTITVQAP
# T2: FcγRIIb extracellular domain with C-terminal His tag (human, UniProt P31994 43-217)
# T2 construct: extracellular domain; soluble analyte in Biacore; also called FcgRIIb; not shown: His tag at the C terminus
# T2 sequence (looked up): T1 sequence (looked up)
# B1: GpH7-A5/GpH7-B3 variant D265_16H/GpL16-k0 (antibody, human IgG1, kappa)
# heavy 1: not shown
# heavy 2: not shown
# light: DIVMTQSPLSLPVTPGEPASISCQASESLVHSNRNTYLHWYLQKPGQSPQLLIYKVSNRFSGVPDRFSGSGSGTDFTLKISRVEAEDVGVYYCSQNTHVPPTFGQGTKVEIERTVAAPSVFIFPPSDEQLKSGTASVVCLLNNFYPREAKVQWKVDNALQSGNSQESVTEQDSKDSTYSLSSTLTLSKADYEKHKVYACEVTHQGLSSPVTKSFNRGEC
# notes: He Ab; IgG1, mutation in one H chain
# B2: GpH7-A5/GpH7-B3 variant D265_18N/GpL16-k0 (antibody, human IgG1, kappa)
# heavy 1: not shown
# heavy 2: not shown
# light: B1 light
# notes: as for B1
# B3: GpH7-A5/GpH7-B3 variant D265_19Q/GpL16-k0 (antibody, human IgG1, kappa)
# heavy 1: not shown
# heavy 2: not shown
# light: B1 light
# notes: as for B1
# B4: GpH7-A5/GpH7-B3 variant V266_11K/GpL16-k0 (antibody, human IgG1, kappa)
# heavy 1: not shown
# heavy 2: not shown
# light: B1 light
# notes: as for B1
# B5: GpH7-A5/GpH7-B3 variant V266_05P/GpL16-k0 (antibody, human IgG1, kappa)
# heavy 1: not shown
# heavy 2: not shown
# light: B1 light
# notes: as for B1
# B6: GpH7-A5/GpH7-B3 variant V266_01G/GpL16-k0 (antibody, human IgG1, kappa)
# heavy 1: not shown
# heavy 2: not shown
# light: B1 light
# notes: as for B1
# B7: GpH7-A5/GpH7-B3 variant V266_10E/GpL16-k0 (antibody, human IgG1, kappa)
# heavy 1: not shown
# heavy 2: not shown
# light: B1 light
# notes: as for B1
# B8: GpH7-A5/GpH7-B3 variant D265_20W/GpL16-k0 (antibody, human IgG1, kappa)
# heavy 1: not shown
# heavy 2: not shown
# light: B1 light
# notes: as for B1
# B9: GpH7-A5/GpH7-B3 variant S239_20W/GpL16-k0 (antibody, human IgG1, kappa)
# heavy 1: not shown
# heavy 2: not shown
# light: B1 light
# notes: as for B1
# B10: GpH7-A5/GpH7-B3 variant V266_04F/GpL16-k0 (antibody, human IgG1, kappa)
# heavy 1: not shown
# heavy 2: not shown
# light: B1 light
# notes: as for B1
# B11: GpH7-A5/GpH7-B3 variant V266_13S/GpL16-k0 (antibody, human IgG1, kappa)
# heavy 1: not shown
# heavy 2: not shown
# light: B1 light
# notes: as for B1
# B12: GpH7-A5/GpH7-B3 variant V266_09D/GpL16-k0 (antibody, human IgG1, kappa)
# heavy 1: not shown
# heavy 2: not shown
# light: B1 light
# notes: as for B1
# B13: GpH7-A5/GpH7-B3 variant D270_01G/GpL16-k0 (antibody, human IgG1, kappa)
# heavy 1: not shown
# heavy 2: not shown
# light: B1 light
# notes: change in the GpH7-B3 H chain only; also called He Ab
# B14: GpH7-A5/GpH7-B3 variant E269_19Q/GpL16-k0 (antibody, human IgG1, kappa)
# heavy 1: not shown
# heavy 2: not shown
# light: B1 light
# notes: as for B13
# B15: GpH7-A5/GpH7-B3 variant D270_05P/GpL16-k0 (antibody, human IgG1, kappa)
# heavy 1: not shown
# heavy 2: not shown
# light: B1 light
# notes: as for B13
# B16: GpH7-A5/GpH7-B3 variant D270_14T/GpL16-k0 (antibody, human IgG1, kappa)
# heavy 1: not shown
# heavy 2: not shown
# light: B1 light
# notes: as for B13
# B17: GpH7-A5/GpH7-B3 variant D270_06M/GpL16-k0 (antibody, human IgG1, kappa)
# heavy 1: not shown
# heavy 2: not shown
# light: B1 light
# notes: as for B13
# B18: GpH7-A5/GpH7-B3 variant D270_12R/GpL16-k0 (antibody, human IgG1, kappa)
# heavy 1: not shown
# heavy 2: not shown
# light: B1 light
# notes: as for B13
# B19: GpH7-A5/GpH7-B3 variant D270_16H/GpL16-k0 (antibody, human IgG1, kappa)
# heavy 1: not shown
# heavy 2: not shown
# light: B1 light
# notes: as for B13
# B20: GpH7-A5/GpH7-B3 variant D270_19Q/GpL16-k0 (antibody, human IgG1, kappa)
# heavy 1: not shown
# heavy 2: not shown
# light: B1 light
# notes: as for B13
# B21: GpH7-A5/GpH7-B3 variant E269_20W/GpL16-k0 (antibody, human IgG1, kappa)
# heavy 1: not shown
# heavy 2: not shown
# light: B1 light
# notes: as for B13
# B22: GpH7-A5/GpH7-B3 variant D270_11K/GpL16-k0 (antibody, human IgG1, kappa)
# heavy 1: not shown
# heavy 2: not shown
# light: B1 light
# notes: as for B13
# B23: GpH7-A5/GpH7-B3 variant D270_03V/GpL16-k0 (antibody, human IgG1, kappa)
# heavy 1: not shown
# heavy 2: not shown
# light: B1 light
# notes: as for B13
# B24: GpH7-A5/GpH7-B3 variant D270_15Y/GpL16-k0 (antibody, human IgG1, kappa)
# heavy 1: not shown
# heavy 2: not shown
# light: B1 light
# notes: as for B13
# B25: GpH7-A5/GpH7-B3 variant D270_02A/GpL16-k0 (antibody, human IgG1, kappa)
# heavy 1: not shown
# heavy 2: not shown
# light: B1 light
# notes: as for B13
# B26: GpH7-A5/GpH7-B3 variant D270_08L/GpL16-k0 (antibody, human IgG1, kappa)
# heavy 1: not shown
# heavy 2: not shown
# light: B1 light
# notes: as for B13
# B27: GpH7-A5/GpH7-B3 variant D270_07I/GpL16-k0 (antibody, human IgG1, kappa)
# heavy 1: not shown
# heavy 2: not shown
# light: B1 light
# notes: as for B13
# B28: GpH7-A5/GpH7-B3 variant D270_18N/GpL16-k0 (antibody, human IgG1, kappa)
# heavy 1: not shown
# heavy 2: not shown
# light: B1 light
# notes: as for B13
# B29: GpH7-A5/GpH7-B3 variant D270_13S/GpL16-k0 (antibody, human IgG1, kappa)
# heavy 1: not shown
# heavy 2: not shown
# light: B1 light
# notes: as for B13
# B30: GpH7-A5/GpH7-B3 variant D270_04F/GpL16-k0 (antibody, human IgG1, kappa)
# heavy 1: not shown
# heavy 2: not shown
# light: B1 light
# notes: as for B13
# Target: T3, FcγRIa extracellular domain with C-terminal His tag (human, UniProt P12314 16-292)
# T3 construct: extracellular domain; expressed in FreeStyle293 cells; analyte in Biacore; also called FcgRI; 1a
# Experiment: SPR (Biacore); He/Con_1a divided by He/Con_2b (FcγRIIb as reference)
# T3 sequence (P12314 16-292): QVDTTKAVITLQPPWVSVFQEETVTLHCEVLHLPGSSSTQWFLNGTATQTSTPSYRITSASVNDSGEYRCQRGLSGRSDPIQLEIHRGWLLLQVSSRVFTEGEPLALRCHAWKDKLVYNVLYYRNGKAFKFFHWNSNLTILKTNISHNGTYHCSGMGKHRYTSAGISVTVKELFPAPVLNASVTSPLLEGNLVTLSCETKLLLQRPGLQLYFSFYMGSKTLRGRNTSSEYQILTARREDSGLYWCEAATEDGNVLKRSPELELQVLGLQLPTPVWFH
row,Binder,He_1a/2b (Ia/IIb)
1,B1,2.23 ratio
2,B2,4.52 ratio
3,B3,2.66 ratio
4,B4,63.5 ratio
5,B5,205 ratio
6,B6,1.77 ratio
7,B7,5.37 ratio
8,B8,45.6 ratio
9,B9,2.06 ratio
10,B10,1.68 ratio
11,B11,1.67 ratio
12,B12,7.88 ratio

# Target: T4, FcγRIa extracellular domain with C-terminal His tag (human, UniProt P12314 16-292)
# T4 construct: extracellular domain; soluble analyte in Biacore; also called FcgRI; not shown: His tag at the C terminus
# Experiment: SPR; He/Con_1a divided by He/Con_2b (FcγRIa against FcγRIIb)
# Procedure: The heterodimerized antibodies He Abs in which one of the H chains was introduced with an alteration were assayed for their binding activities to each activating FcγR and inhibitory FcγR according to the method described in Example 4. […] The activating FcγRs in FIGS. 26, 27, 28, and 29 are FcγRIa, FcγRIIa (R), FcγRIIa (H), and FcγRIIIa, respectively.
# Analysis of interaction between objective antibody and the FcγR was carried out using Biacore T100 (GE Healthcare). HBS-EP+ (GE Healthcare) was used as the running buffer, and the measurement temperature was set to 25° C. Chips produced by immobilizing the antigen peptide by the amine coupling method to a Series S Sencor Chip CM5 (GE Healthcare), or alternatively, chips produced by allowing preliminarily biotinylated antigen peptides to interact with and immobilize onto a Series S Sensor Chip SA (certified) (GE Healthcare) were used. Antibodies of interest were captured onto an antigen peptide-immobilized chip, and allowed to interact to each FcγR diluted with running buffer. To regenerate and repeatedly use the chip, the antibodies captured on the chip were washed off by reacting 10 mM glycine-HCl, pH 1.5.
# T4 sequence (P12314 16-292): as above
row,Binder,He_1a/2b (Ia/IIb)
1,B13,2.5 ratio
2,B14,2.37 ratio
3,B15,4.81 ratio
4,B16,1.22 ratio
5,B17,1.64 ratio
6,B18,3.63 ratio
7,B19,1.4 ratio
8,B20,1.63 ratio
9,B21,2.47 ratio
10,B22,2.88 ratio
11,B23,1.97 ratio
12,B24,1.53 ratio
13,B25,1.48 ratio
14,B26,1.37 ratio
15,B27,1.8 ratio
16,B28,1.68 ratio
17,B29,1.7 ratio
18,B30,1.47 ratio

# Target: T3, FcγRIa extracellular domain with …
# Experiment: SPR (Biacore), captured antibody, FcγR as analyte; relative binding
row,Binder,He/Con_1a
1,B1,85.4 % of HeCon Ab (GpH7-A5/GpH7-B3/GpL16-k0 = 100)
2,B2,27.7 % of HeCon Ab (GpH7-A5/GpH7-B3/GpL16-k0 = 100)
3,B3,88.8 % of HeCon Ab (GpH7-A5/GpH7-B3/GpL16-k0 = 100)
4,B4,64.4 % of HeCon Ab (GpH7-A5/GpH7-B3/GpL16-k0 = 100)
5,B5,71.9 % of HeCon Ab (GpH7-A5/GpH7-B3/GpL16-k0 = 100)
6,B6,91.3 % of HeCon Ab (GpH7-A5/GpH7-B3/GpL16-k0 = 100)
7,B7,81.9 % of HeCon Ab (GpH7-A5/GpH7-B3/GpL16-k0 = 100)
8,B8,51.5 % of HeCon Ab (GpH7-A5/GpH7-B3/GpL16-k0 = 100)
9,B9,92.7 % of HeCon Ab (GpH7-A5/GpH7-B3/GpL16-k0 = 100)
10,B10,96.7 % of HeCon Ab (GpH7-A5/GpH7-B3/GpL16-k0 = 100)
11,B11,90.6 % of HeCon Ab (GpH7-A5/GpH7-B3/GpL16-k0 = 100)
12,B12,79.3 % of HeCon Ab (GpH7-A5/GpH7-B3/GpL16-k0 = 100)

# Target: T1, FcγRIIb extracellular domain with …
# Experiment: as above
row,Binder,He/Con_2b
1,B1,38.3 % of HeCon Ab (GpH7-A5/GpH7-B3/GpL16-k0 = 100)
2,B2,6.1 % of HeCon Ab (GpH7-A5/GpH7-B3/GpL16-k0 = 100)
3,B3,33.4 % of HeCon Ab (GpH7-A5/GpH7-B3/GpL16-k0 = 100)
4,B4,1 % of HeCon Ab (GpH7-A5/GpH7-B3/GpL16-k0 = 100)
5,B5,0.4 % of HeCon Ab (GpH7-A5/GpH7-B3/GpL16-k0 = 100)
6,B6,51.5 % of HeCon Ab (GpH7-A5/GpH7-B3/GpL16-k0 = 100)
7,B7,15.2 % of HeCon Ab (GpH7-A5/GpH7-B3/GpL16-k0 = 100)
8,B8,1.1 % of HeCon Ab (GpH7-A5/GpH7-B3/GpL16-k0 = 100)
9,B9,45.1 % of HeCon Ab (GpH7-A5/GpH7-B3/GpL16-k0 = 100)
10,B10,57.6 % of HeCon Ab (GpH7-A5/GpH7-B3/GpL16-k0 = 100)
11,B11,54.4 % of HeCon Ab (GpH7-A5/GpH7-B3/GpL16-k0 = 100)
12,B12,10.1 % of HeCon Ab (GpH7-A5/GpH7-B3/GpL16-k0 = 100)

# Target: T4, FcγRIa extracellular domain with …
# Experiment: SPR, binding relative to GpH7-A5/GpH7-B3/GpL16-k0 = 100
row,Binder,He/Con_1a
1,B13,76.3 % of control
2,B14,105 % of control
3,B15,67.1 % of control
4,B16,70.6 % of control
5,B17,78.8 % of control
6,B18,66.3 % of control
7,B19,66 % of control
8,B20,78.2 % of control
9,B21,105 % of control
10,B22,58.4 % of control
11,B23,77.9 % of control
12,B24,68.5 % of control
13,B25,71.5 % of control
14,B26,73.5 % of control
15,B27,74.6 % of control
16,B28,67.8 % of control
17,B29,75.3 % of control
18,B30,78.1 % of control

# Target: T2, FcγRIIb extracellular domain with …
# Experiment: as above
row,Binder,He/Con_2b
1,B13,30.5 % of control
2,B14,44.3 % of control
3,B15,13.9 % of control
4,B16,57.8 % of control
5,B17,48.2 % of control
6,B18,18.3 % of control
7,B19,47.2 % of control
8,B20,48 % of control
9,B21,42.5 % of control
10,B22,20.3 % of control
11,B23,39.5 % of control
12,B24,44.9 % of control
13,B25,48.3 % of control
14,B26,53.6 % of control
15,B27,41.5 % of control
16,B28,40.3 % of control
17,B29,44.2 % of control
18,B30,53.1 % of control
